51 variants from the RNAGym collection of RNA variant scans (doi:10.1101/gr.219683.116) can be followed below.

B1: mRNA-splicing (parent)
chain: AGUUGCUGCUGGGAGCUCCAGCACAGUGAAAUGGACAGAAGGGCAGAGCAA

The variants in this series derive from B1. Kind of series: exon inclusion enrichment index; higher = more inclusion; WT1 exon 5 minigene, HEK293.
Take AGUCGCCACCGGGAGCUCCAGCACAGUGAAAUGGACAGAAGGGCAGAGCAA [U4C U7C G8A U10C]: the “exon inclusion enrichment index” value came out at 3.91.

In the case of AGUUAGGGAUGGGAGCUCCAGCACAGUGAAAUGGACAGACCGGCAGAGCAA [G5A C6G U7G C9A A40C G41C], the “exon inclusion enrichment index” value was 0.0197.

With AGUUGACGACGGGAGCUCCAGCACAAGGAAAUGGACAGAAGGGCAGAGCAA [C6A U7C C9A U10C G26A U27G], the “exon inclusion enrichment index” value was 3.54.

With AGUUUCUUUUGGGAGCUCUGGCACAGUGAAAUGGACAGAAGGGCAGAGCAA [G5U G8U C9U C19U A20G], the “exon inclusion enrichment index” value stood at 0.0101.

On to AGUUCUUGCCGGGAGCUCCAGCACAGUGAAAUGGACAGAAGGGCAGAGCAA [G5C C6U U10C], for which the “exon inclusion enrichment index” value stood at 1.82.

Turning to AGUUCGCGCCGGGAGCUCCAGCACAGUGAAAUGGACAGAAGGGCAUCGCAA [G5C C6G U7C U10C G46U A47C], the “exon inclusion enrichment index” value turned out to be 3.73.

Regarding AGGACUUCUCGGGAGCUCCAGCACAGUGAAAUGGACAGAAGGGCAGAGCAA [U3G U4A G5C C6U G8C C9U U10C], the “exon inclusion enrichment index” value is 0.91.

In the case of AGUUAUAUAUGGGAGCUCCAGCACAGUUUAAUGGACAGAAGGGCAGAGCAA [G5A C6U U7A G8U C9A G28U A29U], the “exon inclusion enrichment index” value is 0.00744.

As for AGUUGACGACGGGAGCUCCAGCACAGUGAAAUGGAACGAAGGGCAGAGCAA [C6A U7C C9A U10C C36A A37C], the “exon inclusion enrichment index” value came to 3.18.

For the variant AGUUAUAUAUGGGAGCGGCAGCACAGUGAAAUGGACAGAAGGGCAGAGCAA [G5A C6U U7A G8U C9A U17G C18G], the “exon inclusion enrichment index” value is 0.0481.

On to AGUUUCGCUUGGGAGCUCCAGCACAGUGAAAUGGACAGAAGGGCAGAGCAA [G5U U7G G8C C9U], for which the “exon inclusion enrichment index” value was found to be 1.58.

On to AGUUCGCGCCGGGAGCUCCAGCGUAGUGAAAUGGACAGAAGGGCAGAGCAA [G5C C6G U7C U10C A23G C24U], for which the “exon inclusion enrichment index” value was 1.96.

On to AGUUACGUCCGGGAGCUCCAGCACAGUGAAAUGGACAGAAGGGCAGAGCAA [G5A U7G G8U U10C], for which the “exon inclusion enrichment index” value was 2.36.

In the case of AGUUGACGACGGGAGCUACAGCACAGUGAAAUGGACAGAAGGGCAGAGCAA [C6A U7C C9A U10C C18A], the “exon inclusion enrichment index” value is 2.64.

Take AGUUAUCGAUGGGAGCUCCAGCACAGUGAAAUGGACAGAAGGGCAGAGCAA [G5A C6U U7C C9A]: the “exon inclusion enrichment index” value is 1.32.

In the case of AGUUUCUUUUGGGCUCUCCAGCACAGUGAAAUGGACAGAAGGGCAGAGCAA [G5U G8U C9U A14C G15U], the “exon inclusion enrichment index” value is 0.0169.

AGUUGACGACGGGAGCUCCAGCACAGUGAAAUGGACAGAAGGGCAGCUCAA [C6A U7C C9A U10C A47C G48U]: the “exon inclusion enrichment index” value turned out to be 3.09.

Regarding AGUUCUUCUCGGGAGCUCCAGCACAGUGGGAUGGACAGAAGGGCAGAGCAA [G5C C6U G8C C9U U10C A29G A30G], the “exon inclusion enrichment index” value is 1.37.

With AGUUCACACAGGGAGCUCCAGCACAGUAGAAUGGACAGAAGGGCAGAGCAA [G5C C6A U7C G8A U10A G28A A29G], the “exon inclusion enrichment index” value was 0.0244.

Consider AGUUCGCGCCGGGAGCUCCAGCACAGUGAAAUGGACAGAAGGGCAGAACAA [G5C C6G U7C U10C G48A], for which the “exon inclusion enrichment index” value came out at 4.29.

As for AGUUCGCGCGUGGAGCUCCAGCACAGUGAAAUGGACAGAAGGGCAGAGCAA [G5C C6G U7C U10G G11U], the “exon inclusion enrichment index” value turned out to be 2.66.

Turning to AGUUGACGACGGGAGCUCCAGCACAGUGAAAUGGGCAGAAGGGCAGAGCAA [C6A U7C C9A U10C A35G], the “exon inclusion enrichment index” value came to 1.79.

In the case of AGUUAGGGAUGGGAGCUGAAGCACAGUGAAAUGGACAGAAGGGCAGAGCAA [G5A C6G U7G C9A C18G C19A], the “exon inclusion enrichment index” value was 0.00169.

In the case of AGUUGAAGCGGGGAGCUCCAGCACAGUGAAAUGGACAGAAGGGCAGAGCAA [C6A U7A U10G], the “exon inclusion enrichment index” value came out at 0.84.

Turning to AGUUAGGGAUGGGAGCUCCAGCACAUCGAAAUGGACAGAAGGGCAGAGCAA [G5A C6G U7G C9A G26U U27C], the “exon inclusion enrichment index” value was determined as 0.0253.

For AGUUGCUGCUGGGAGCUCCAGCACAGUGAAAUGGACCUAAGGGCAGAGCAA [A37C G38U], the “exon inclusion enrichment index” value is 0.0604.

On to AGUUCUUCUCGGGAGCUCCAGCACAGUGAUGUGGACAGAAGGGCAGAGCAA [G5C C6U G8C C9U U10C A30U A31G], for which the “exon inclusion enrichment index” value was found to be 2.12.

With AGUUCUUCUCGGGAGCUCCUGCACAGUGAAAUGGACAGAAGGGCAGAGCAA [G5C C6U G8C C9U U10C A20U], the “exon inclusion enrichment index” value worked out at 2.17.

Take AGUUGACGACGGGAGCUCCAGUACAGUGAAAUGGACAGAAGGGCAGAGCAA [C6A U7C C9A U10C C22U]: the “exon inclusion enrichment index” value was 2.84.

As to AGUUACCAGGGGGAGCUCCAGCACAGUGAAAUGGACAGAAGGGCAGAGCAA [G5A U7C G8A C9G U10G], the “exon inclusion enrichment index” value was determined as 0.236.

Take AGUUAUAUAUGGGAGCUACAGCACAGUGAAAUGGACAGAAGGGCAGAGCAA [G5A C6U U7A G8U C9A C18A]: the “exon inclusion enrichment index” value was found to be 0.017.

For AGUUGAAGAAGAUAGCUCCAGCACAGUGAAAUGGACAGAAGGGCAGAGCAA [C6A U7A C9A U10A G12A G13U], the “exon inclusion enrichment index” value was 0.801.

Take AGUUGCUGCUGGGAGCUCCAGCACAGCUAAAUGGACAGAAGGGCAGAGCAA [U27C G28U]: the “exon inclusion enrichment index” value stood at 0.00627.

For the variant AGUUGCUGCUGGGAGCUCCAGCACAGUGAAAACGACAGAAGGGCAGAGCAA [U32A G33C], the “exon inclusion enrichment index” value was 0.181.

Consider AGUUAUAUAUGGGAGCUCCAGCACAGUGAAGGGGACAGAAGGGCAGAGCAA [G5A C6U U7A G8U C9A A31G U32G], for which the “exon inclusion enrichment index” value came out at 0.0411.

AGUUAUAUAUGGGAGCUGUAGCACAGUGAAAUGGACAGAAGGGCAGAGCAA [G5A C6U U7A G8U C9A C18G C19U]: the “exon inclusion enrichment index” value stood at 0.00519.

On to AGUUGACGACGGGAGCUCCAGCACAGUGACAUGGACAGAAGGGCAGAGCAA [C6A U7C C9A U10C A30C], for which the “exon inclusion enrichment index” value was determined as 3.29.

AGUUAGGGAUGGGAGCUCCAGCACAGUGAAAUGGACAGUUGGGCAGAGCAA [G5A C6G U7G C9A A39U A40U]: the “exon inclusion enrichment index” value was found to be 0.00155.

AGUUCACACAGGGAGCUCCAGCACAGAUAAAUGGACAGAAGGGCAGAGCAA [G5C C6A U7C G8A U10A U27A G28U]: the “exon inclusion enrichment index” value was 0.0378.

AGGGCGCGCCGGGAGCUCCAGCACAGUGAAAUGGACAGAAGGGCAGAGCAA [U3G U4G G5C C6G U7C U10C]: the “exon inclusion enrichment index” value was determined as 0.836.

As to AGUUAGGGAUGGGAGCUCCAGCACAGUGAAAUGUACAGAAGGGCAGAGCAA [G5A C6G U7G C9A G34U], the “exon inclusion enrichment index” value was found to be 0.000859.

On to AGUUGAAGAGCGGAGCUCCAGCACAGUGAAAUGGACAGAAGGGCAGAGCAA [C6A U7A C9A U10G G11C], for which the “exon inclusion enrichment index” value came out at 1.95.

Take AGUUCACACAGGGAGCUCCAGCACAGUGAAAACGACAGAAGGGCAGAGCAA [G5C C6A U7C G8A U10A U32A G33C]: the “exon inclusion enrichment index” value was determined as 0.174.

Take AGUUGACGACGGGAGCUCCAGCACAGUGAAAUGGACAGAAGGGCACAGCAA [C6A U7C C9A U10C G46C]: the “exon inclusion enrichment index” value turned out to be 2.33.

As to AGUUGCUGCUGGGAGCUCCAGCAUCGUGAAAUGGACAGAAGGGCAGAGCAA [C24U A25C], the “exon inclusion enrichment index” value turned out to be 1.23.

For AGUUCUUCUUCGGAGCUCCAGCACAGUGAAAUGGACAGAAGGGCAGAGCAA [G5C C6U G8C C9U G11C], the “exon inclusion enrichment index” value is 2.09.

Consider AGUUACCACCGGGAGCUCCAGCACAGUGAAAUGGACAGAAGUCCAGAGCAA [G5A U7C G8A U10C G42U G43C], for which the “exon inclusion enrichment index” value is 1.5.

In the case of AGUUGCUGCUGGGAGCUCCAGCACAGUGAAAUGGACAGAACUGCAGAGCAA [G41C G42U], the “exon inclusion enrichment index” value was found to be 0.907.

As to AGUUGACGACGGGAGCUCCAGCAUGGUGAAAUGGACAGAAGGGCAGAGCAA [C6A U7C C9A U10C C24U A25G], the “exon inclusion enrichment index” value came out at 3.92.

In the case of AGUUACCACCGGGAGCUCCAGCACAGUGAAAUCGACAGAAGGGCAGAGCAA [G5A U7C G8A U10C G33C], the “exon inclusion enrichment index” value was 2.65.

Regarding AGUUGACGACGGCGGCUCCAGCACAGUGAAAUGGACAGAAGGGCAGAGCAA [C6A U7C C9A U10C G13C A14G], the “exon inclusion enrichment index” value was determined as 2.83.
